Data taken from article PMC2647517 (Biochemistry, 2008).
Like-named read-outs stand apart in the source and are kept apart here.

Key:
SEC [1] = target: the molecule itself; experiment: SEC
cross-linking = target: the molecule itself; experiment: cross-linking
SEC [2] = target: the molecule itself; experiment: SEC; remark: listed apart in the source
[3] = target: the molecule itself
SEC + cross-linking [4] = target: the molecule itself; experiment: SEC + cross-linking
SEC + cross-linking [5] = target: the molecule itself; experiment: SEC + cross-linking; remark: listed apart in the source

B1: Escherichia coli manganese superoxide dismutase, wild type (apoprotein) (enzyme, UniProt P00448 1-206, looked up)
chain: MSYTLPSLPYAYDALEPHFDKQTMEIHHTKHHQTYVNNANAALESLPEFANLPVEELITKLDQLPADKKTVLRNNAGGHANHSLFWKGLKKGTTLQGDLKAAIERDFGSVDNFKAEFEKAAASRFGSGWAWLVLKGDKLAVVSTANQDSPLMGEAISGASGFPIMGLDVWEHAYYLKFQNRRPDYIKEFWNVVNWDEAAARFAAKK
stoichiometry N (SEC [1]): 2

B2: EC MnSOD Y174C, disulfide form (enzyme, Escherichia coli, UniProt P00448 1-206, looked up)
chain: MSYTLPSLPYAYDALEPHFDKQTMEIHHTKHHQTYVNNANAALESLPEFANLPVEELITKLDQLPADKKTVLRNNAGGHANHSLFWKGLKKGTTLQGDLKAAIERDFGSVDNFKAEFEKAAASRFGSGWAWLVLKGDKLAVVSTANQDSPLMGEAISGASGFPIMGLDVWEHAYCLKFQNRRPDYIKEFWNVVNWDEAAARFAAKK
modifications: disulfide between Cys174 of the two subunits
stoichiometry N (cross-linking): 2

B3: EC MnSOD S126C, free thiol form (enzyme, Escherichia coli, UniProt P00448 1-206, looked up)
chain: MSYTLPSLPYAYDALEPHFDKQTMEIHHTKHHQTYVNNANAALESLPEFANLPVEELITKLDQLPADKKTVLRNNAGGHANHSLFWKGLKKGTTLQGDLKAAIERDFGSVDNFKAEFEKAAASRFGCGWAWLVLKGDKLAVVSTANQDSPLMGEAISGASGFPIMGLDVWEHAYYLKFQNRRPDYIKEFWNVVNWDEAAARFAAKK
modifications: Cys126 as free thiol (0.99 mol SH/mol protein)
stoichiometry N (SEC [2]): 2

B4: EC MnSOD H171A (enzyme, Escherichia coli, UniProt P00448 1-206, looked up)
chain: MSYTLPSLPYAYDALEPHFDKQTMEIHHTKHHQTYVNNANAALESLPEFANLPVEELITKLDQLPADKKTVLRNNAGGHANHSLFWKGLKKGTTLQGDLKAAIERDFGSVDNFKAEFEKAAASRFGSGWAWLVLKGDKLAVVSTANQDSPLMGEAISGASGFPIMGLDVWEAAYYLKFQNRRPDYIKEFWNVVNWDEAAARFAAKK
stoichiometry N [3]: 2

B5: EC MnSOD S126C, disulfide form (enzyme, Escherichia coli, UniProt P00448 1-206, looked up)
chain: MSYTLPSLPYAYDALEPHFDKQTMEIHHTKHHQTYVNNANAALESLPEFANLPVEELITKLDQLPADKKTVLRNNAGGHANHSLFWKGLKKGTTLQGDLKAAIERDFGSVDNFKAEFEKAAASRFGCGWAWLVLKGDKLAVVSTANQDSPLMGEAISGASGFPIMGLDVWEHAYYLKFQNRRPDYIKEFWNVVNWDEAAARFAAKK
modifications: disulfide between Cys126 of the two subunits
stoichiometry N (SEC + cross-linking [4]): 2
stoichiometry N (SEC + cross-linking [5]): 2

B6: EC MnSOD E170C, disulfide form (enzyme, Escherichia coli, UniProt P00448 1-206, looked up)
chain: MSYTLPSLPYAYDALEPHFDKQTMEIHHTKHHQTYVNNANAALESLPEFANLPVEELITKLDQLPADKKTVLRNNAGGHANHSLFWKGLKKGTTLQGDLKAAIERDFGSVDNFKAEFEKAAASRFGSGWAWLVLKGDKLAVVSTANQDSPLMGEAISGASGFPIMGLDVWCHAYYLKFQNRRPDYIKEFWNVVNWDEAAARFAAKK
modifications: disulfide between Cys170 of the two subunits
stoichiometry N (cross-linking): 2

B7: EC MnSOD (S126C/Y174C), double disulfide form (enzyme, Escherichia coli, UniProt P00448 1-206, looked up)
chain: MSYTLPSLPYAYDALEPHFDKQTMEIHHTKHHQTYVNNANAALESLPEFANLPVEELITKLDQLPADKKTVLRNNAGGHANHSLFWKGLKKGTTLQGDLKAAIERDFGSVDNFKAEFEKAAASRFGCGWAWLVLKGDKLAVVSTANQDSPLMGEAISGASGFPIMGLDVWEHAYCLKFQNRRPDYIKEFWNVVNWDEAAARFAAKK
modifications: disulfides between Cys126 and Cys126 and between Cys174 and Cys174 of the two subunits
stoichiometry N (cross-linking): 2
